In paper PMC10556103, “Autoantibody binding and unique enzyme-substrate intermediate conformation of human transglutaminase 3” (Nature Communications, 2023):

Key:
Test in all cases: crystal structure; TG3 form mixed with Fab DH63-B02 at 1:1.1 molar ratio, complex purified by SEC; crystals in 0.1 M HEPES-MOPS pH 7.1, 16-22% ethylene glycol, 8-11% PEG 8000, 6-10 mM CaCl2, 3-10 mM MgCl2; three Ca2+ bound
Details in all cases: both partners purified
[1] = molecular target: T1, zymogen transglutaminase 3 (TG3), human recombinant (Homo sapiens, UniProt Q08188)
T1 construct: human transglutaminase 3, uncleaved zymogen (79 kDa), with N-terminal, catalytic core, C1 and C2 domains; the loop 461-473 is intact; also called TG3 zymogen; zymogen TG3; source: Sf9 insect cells, purified (Ni-NTA)

[2] = molecular target: T2, dispase-cleaved TG3 (N-terminal and core domains with C1C2 non-covalently associated) (Homo sapiens, UniProt Q08188)
T2 construct: human transglutaminase 3, N-terminal and catalytic core domains (N-core, 51 kDa) left by dispase cleavage in the loop 461-473; human transglutaminase 3, the two C-terminal beta-barrel domains C1C2 (26 kDa) left by dispase cleavage in the loop 461-473; TG3 was His-tagged before cleavage; source: Sf9 insect cells, purified (Ni-NTA); cleaved with dispase I, SEC

[3] = molecular target: T3, Z-DON-associated TG3 without C1C2 (enzyme-substrate intermediate conformer) (human, UniProt Q08188, Cys273 alkylated by Z-DON (Z-DON-Val-Pro-Leu-OMe))
T3 construct: human transglutaminase 3, N-terminal and catalytic core domains (N-core, 51 kDa) left by cleavage in the loop 461-473; TG3 was His-tagged before cleavage; The cleavage sites of dispase and cathepsin L may differ; also called cleaved TG3 + Z-DON; source: Sf9 insect cells, purified (Ni-NTA); cleaved with dispase I or cathepsin L, incubated with Z-DON, SEC

[4] = molecular target: T4, N-terminal and core domains (N-core) of cleaved TG3 (Homo sapiens, UniProt Q08188)
T4 construct: human transglutaminase 3, N-terminal and catalytic core domains (N-core, 51 kDa) left by cleavage in the loop 461-473; also called catalytic core domain; catalytic domain; source: Sf9 insect cells, purified (Ni-NTA); cleaved with dispase I or cathepsin L, SEC

Measured: binding result

T3 sequence (Q08188 2-461): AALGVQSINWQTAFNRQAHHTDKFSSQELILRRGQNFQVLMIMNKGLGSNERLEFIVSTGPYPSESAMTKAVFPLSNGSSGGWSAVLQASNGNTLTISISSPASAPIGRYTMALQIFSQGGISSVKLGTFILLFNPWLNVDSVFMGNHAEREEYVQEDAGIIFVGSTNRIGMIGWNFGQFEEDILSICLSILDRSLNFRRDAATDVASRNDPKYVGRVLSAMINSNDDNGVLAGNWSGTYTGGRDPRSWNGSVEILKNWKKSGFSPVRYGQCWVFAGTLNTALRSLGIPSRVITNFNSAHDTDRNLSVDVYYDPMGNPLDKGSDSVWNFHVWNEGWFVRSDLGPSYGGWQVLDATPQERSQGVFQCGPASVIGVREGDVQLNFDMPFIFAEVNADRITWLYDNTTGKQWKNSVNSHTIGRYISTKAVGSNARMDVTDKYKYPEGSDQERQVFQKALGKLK
T2 sequence (Q08188 whole entry, chain 1 of 2, the tested form may be a part): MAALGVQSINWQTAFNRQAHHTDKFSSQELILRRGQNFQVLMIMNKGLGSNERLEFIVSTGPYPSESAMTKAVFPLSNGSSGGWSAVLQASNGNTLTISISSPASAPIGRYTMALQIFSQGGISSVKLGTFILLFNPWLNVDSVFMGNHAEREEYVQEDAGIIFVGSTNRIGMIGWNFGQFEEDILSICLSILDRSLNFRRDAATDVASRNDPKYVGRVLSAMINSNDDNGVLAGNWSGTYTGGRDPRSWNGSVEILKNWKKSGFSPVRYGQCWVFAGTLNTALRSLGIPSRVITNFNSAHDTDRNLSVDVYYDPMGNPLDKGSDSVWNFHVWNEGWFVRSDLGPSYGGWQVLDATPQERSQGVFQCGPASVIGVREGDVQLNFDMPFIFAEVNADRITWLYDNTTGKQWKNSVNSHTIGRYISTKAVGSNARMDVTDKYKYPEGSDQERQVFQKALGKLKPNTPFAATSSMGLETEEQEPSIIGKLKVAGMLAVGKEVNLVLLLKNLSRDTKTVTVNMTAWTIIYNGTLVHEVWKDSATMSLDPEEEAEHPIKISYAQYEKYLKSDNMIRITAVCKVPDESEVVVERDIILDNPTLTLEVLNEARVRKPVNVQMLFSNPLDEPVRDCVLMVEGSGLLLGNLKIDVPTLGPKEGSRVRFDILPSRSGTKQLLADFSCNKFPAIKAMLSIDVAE
T2 sequence (Q08188 whole entry, chain 2 of 2, the tested form may be a part): as the sequence (Q08188 whole entry, chain 1 of 2, the tested form may be a part) above
T1 sequence (Q08188 whole entry, the tested form may be a part): as the sequence (Q08188 whole entry, chain 1 of 2, the tested form may be a part) above
T4 sequence (Q08188 whole entry, the tested form may be a part): as the sequence (Q08188 whole entry, chain 1 of 2, the tested form may be a part) above

B1: Fab fragment of the anti-TG3 antibody DH63-B02 (Fab, V domains shown)
VH: EVQLVESGGGLVQPGRSLRLSCTASGFTFDDYAMHWVRQAPGKGLEWVSRISWNSRSIAYADSVKGRFTISRDSAKNSLYLQMNSLRTEDTALYYCAKDHYLGSDSYGMDVWGQGTTVTVSS
VL: NFMLTQPHSVSESPGKTVTISCTRSSGSIDSNYVQWYQQRPGSAPTIVIHEDNQRPSGVPDRFSGSIDTSSNSASLTISGLKTEDEADYYCQSYDPSNVVFGGGTKLTVL
notes: Fab heavy chain of the human antibody DH63-B02 from a dermatitis herpetiformis patient; Fab light chain of DH63-B02, purified on a resin for human lambda light chains; also called Fab DH63-B02; the Fab
binds: all assays above
